This note sets out measurements from patent publication US20120114557A1.

Experiment [1] deals with rat collagen type I (rat) (UniProt P02454). Briefly: dried collagen assay, 5 uM peptide.
The target in experiment [2] is human collagen type I (human) (UniProt P02452). As to the kind of experiment: dried collagen assay, 5 uM peptide.

Bridge positions count the residues as written; N and C are the ends. Square brackets hold non-standard residues; d marks the D form. Ends that are not written are not given here. NMeA = CN[C@@H](C)C(=O)O; Sar = CNCC(=O)O

Sequence of human collagen type I (human) (P02452 162-1218 limits assumed, chain 1 of 2): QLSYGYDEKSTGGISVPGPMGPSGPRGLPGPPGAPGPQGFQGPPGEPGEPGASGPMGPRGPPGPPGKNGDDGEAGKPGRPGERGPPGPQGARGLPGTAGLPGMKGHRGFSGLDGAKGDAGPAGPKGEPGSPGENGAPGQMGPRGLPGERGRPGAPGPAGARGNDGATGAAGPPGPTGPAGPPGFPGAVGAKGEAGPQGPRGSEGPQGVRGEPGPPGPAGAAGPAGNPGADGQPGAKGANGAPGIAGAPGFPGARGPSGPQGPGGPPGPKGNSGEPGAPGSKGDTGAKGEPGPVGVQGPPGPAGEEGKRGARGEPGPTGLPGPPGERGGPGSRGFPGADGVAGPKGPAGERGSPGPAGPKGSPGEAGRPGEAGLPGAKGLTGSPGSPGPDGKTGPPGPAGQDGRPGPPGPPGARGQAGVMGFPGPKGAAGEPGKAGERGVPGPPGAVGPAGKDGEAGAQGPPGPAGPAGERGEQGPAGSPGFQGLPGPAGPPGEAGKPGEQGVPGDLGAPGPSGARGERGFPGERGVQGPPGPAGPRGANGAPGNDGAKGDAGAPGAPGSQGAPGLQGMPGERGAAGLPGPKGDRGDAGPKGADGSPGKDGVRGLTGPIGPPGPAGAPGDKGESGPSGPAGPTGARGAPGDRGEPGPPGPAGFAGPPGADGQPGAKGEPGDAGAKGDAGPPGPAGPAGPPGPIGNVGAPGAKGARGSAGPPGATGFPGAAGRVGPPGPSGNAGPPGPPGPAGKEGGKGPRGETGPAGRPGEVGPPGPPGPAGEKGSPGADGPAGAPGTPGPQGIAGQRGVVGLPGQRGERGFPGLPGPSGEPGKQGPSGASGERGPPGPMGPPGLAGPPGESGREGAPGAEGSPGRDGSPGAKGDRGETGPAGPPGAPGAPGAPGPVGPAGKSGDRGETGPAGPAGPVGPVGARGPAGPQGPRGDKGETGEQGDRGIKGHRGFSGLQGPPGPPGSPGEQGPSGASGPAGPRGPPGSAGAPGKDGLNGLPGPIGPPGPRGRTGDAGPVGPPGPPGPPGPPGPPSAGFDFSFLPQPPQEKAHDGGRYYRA
Sequence of human collagen type I (human) (P08123 80-1119 limits assumed, chain 2 of 2, further chain): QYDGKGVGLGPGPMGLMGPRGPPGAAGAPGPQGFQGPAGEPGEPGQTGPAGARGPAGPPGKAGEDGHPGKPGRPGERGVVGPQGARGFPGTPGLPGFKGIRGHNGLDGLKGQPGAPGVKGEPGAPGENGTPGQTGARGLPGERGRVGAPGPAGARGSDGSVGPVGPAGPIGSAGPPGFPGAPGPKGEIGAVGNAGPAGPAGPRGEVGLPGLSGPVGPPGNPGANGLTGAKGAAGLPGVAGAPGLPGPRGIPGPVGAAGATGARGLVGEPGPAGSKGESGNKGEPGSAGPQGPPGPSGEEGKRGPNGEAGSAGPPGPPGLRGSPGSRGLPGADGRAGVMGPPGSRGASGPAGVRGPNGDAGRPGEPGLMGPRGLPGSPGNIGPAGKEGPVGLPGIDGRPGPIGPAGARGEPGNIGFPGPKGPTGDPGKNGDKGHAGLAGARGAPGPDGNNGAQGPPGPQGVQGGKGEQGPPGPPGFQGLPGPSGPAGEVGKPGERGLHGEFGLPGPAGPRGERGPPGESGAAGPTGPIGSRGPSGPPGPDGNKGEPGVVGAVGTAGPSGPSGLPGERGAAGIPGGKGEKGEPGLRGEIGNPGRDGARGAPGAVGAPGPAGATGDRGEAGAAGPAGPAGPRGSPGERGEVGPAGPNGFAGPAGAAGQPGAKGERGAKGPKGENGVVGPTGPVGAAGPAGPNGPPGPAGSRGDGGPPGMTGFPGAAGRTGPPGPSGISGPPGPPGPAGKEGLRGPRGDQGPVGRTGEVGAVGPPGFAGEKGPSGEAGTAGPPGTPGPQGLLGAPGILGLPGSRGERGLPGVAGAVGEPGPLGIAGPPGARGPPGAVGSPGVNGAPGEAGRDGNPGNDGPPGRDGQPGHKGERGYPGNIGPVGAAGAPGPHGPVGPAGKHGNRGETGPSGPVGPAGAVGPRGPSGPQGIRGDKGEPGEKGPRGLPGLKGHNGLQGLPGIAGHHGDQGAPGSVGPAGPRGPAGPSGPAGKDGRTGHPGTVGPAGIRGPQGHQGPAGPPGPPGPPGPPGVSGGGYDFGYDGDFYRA
Sequence of rat collagen type I (rat) (P02454 152-1207, chain 1 of 2): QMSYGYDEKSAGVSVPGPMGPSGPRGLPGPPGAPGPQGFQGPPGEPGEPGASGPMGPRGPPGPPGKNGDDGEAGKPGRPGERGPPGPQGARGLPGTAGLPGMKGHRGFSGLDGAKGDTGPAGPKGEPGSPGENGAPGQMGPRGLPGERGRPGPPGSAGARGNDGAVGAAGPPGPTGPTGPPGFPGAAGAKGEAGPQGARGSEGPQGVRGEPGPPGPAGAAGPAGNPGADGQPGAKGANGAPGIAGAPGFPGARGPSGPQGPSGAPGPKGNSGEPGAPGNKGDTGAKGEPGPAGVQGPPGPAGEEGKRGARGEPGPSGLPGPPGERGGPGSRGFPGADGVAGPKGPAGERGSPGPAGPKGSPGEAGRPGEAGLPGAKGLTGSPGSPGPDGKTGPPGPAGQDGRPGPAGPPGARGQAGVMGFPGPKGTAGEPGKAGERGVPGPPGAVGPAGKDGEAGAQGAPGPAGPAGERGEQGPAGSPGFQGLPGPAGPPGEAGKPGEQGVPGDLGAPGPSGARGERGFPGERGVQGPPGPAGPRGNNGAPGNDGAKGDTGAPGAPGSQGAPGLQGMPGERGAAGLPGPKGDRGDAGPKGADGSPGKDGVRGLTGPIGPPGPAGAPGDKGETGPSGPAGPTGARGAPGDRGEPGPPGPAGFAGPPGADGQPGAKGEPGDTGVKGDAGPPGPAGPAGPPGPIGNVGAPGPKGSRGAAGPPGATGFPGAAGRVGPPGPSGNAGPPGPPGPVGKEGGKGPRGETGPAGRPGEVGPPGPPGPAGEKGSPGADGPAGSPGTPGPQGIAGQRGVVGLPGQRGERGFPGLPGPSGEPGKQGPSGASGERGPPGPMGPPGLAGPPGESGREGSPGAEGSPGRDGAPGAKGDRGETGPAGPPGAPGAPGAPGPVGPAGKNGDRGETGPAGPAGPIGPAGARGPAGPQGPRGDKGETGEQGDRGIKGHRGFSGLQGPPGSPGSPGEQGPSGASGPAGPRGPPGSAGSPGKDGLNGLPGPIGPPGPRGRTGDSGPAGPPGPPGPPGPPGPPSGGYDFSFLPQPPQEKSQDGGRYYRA
Sequence of rat collagen type I (rat) (P02466 86-1125, chain 2 of 2, further chain): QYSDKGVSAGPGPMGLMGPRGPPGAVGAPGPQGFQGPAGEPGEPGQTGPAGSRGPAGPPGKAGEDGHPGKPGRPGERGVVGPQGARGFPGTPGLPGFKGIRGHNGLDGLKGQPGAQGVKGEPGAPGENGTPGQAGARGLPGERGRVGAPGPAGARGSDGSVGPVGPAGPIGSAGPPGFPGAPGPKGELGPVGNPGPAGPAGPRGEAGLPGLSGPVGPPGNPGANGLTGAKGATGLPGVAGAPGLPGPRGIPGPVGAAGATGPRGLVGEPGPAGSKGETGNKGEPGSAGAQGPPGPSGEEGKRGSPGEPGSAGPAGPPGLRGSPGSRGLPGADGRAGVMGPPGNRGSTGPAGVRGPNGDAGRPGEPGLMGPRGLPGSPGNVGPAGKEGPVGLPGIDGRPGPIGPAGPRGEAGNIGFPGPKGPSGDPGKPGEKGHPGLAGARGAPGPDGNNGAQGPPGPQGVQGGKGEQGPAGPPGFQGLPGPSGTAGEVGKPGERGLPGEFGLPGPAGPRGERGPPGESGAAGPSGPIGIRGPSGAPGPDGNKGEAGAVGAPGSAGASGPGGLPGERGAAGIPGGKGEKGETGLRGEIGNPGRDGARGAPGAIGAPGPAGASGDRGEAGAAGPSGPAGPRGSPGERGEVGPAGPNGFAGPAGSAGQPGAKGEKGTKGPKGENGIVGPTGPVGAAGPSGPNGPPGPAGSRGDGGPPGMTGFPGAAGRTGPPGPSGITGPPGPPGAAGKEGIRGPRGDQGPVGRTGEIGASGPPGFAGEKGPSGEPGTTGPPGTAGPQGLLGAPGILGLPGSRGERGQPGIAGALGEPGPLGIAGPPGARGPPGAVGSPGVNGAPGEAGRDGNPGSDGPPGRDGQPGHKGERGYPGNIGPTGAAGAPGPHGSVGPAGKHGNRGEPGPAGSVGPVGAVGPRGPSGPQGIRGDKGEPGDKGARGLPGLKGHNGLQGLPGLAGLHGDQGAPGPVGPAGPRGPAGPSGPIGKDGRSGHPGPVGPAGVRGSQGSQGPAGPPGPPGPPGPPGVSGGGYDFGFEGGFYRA

B1: SEQ ID NO: 162 (peptide)
peptide: YHACYQAGCWI[dW]
modifications: disulfide 4-9 (inferred)
The molecule B1 yielded a % Collagen Binding, Dried Rat in experiment [1] of 14%. The molecule also came in with a % Collagen Binding, Dried Human in experiment [2] of 18%.

B2: SEQ ID NO: 154 (peptide)
peptide: YH[dA]CYQAGCWIW
modifications: disulfide 4-9 (inferred)
As to B2, the % Collagen Binding, Dried Rat in experiment [1] was found to be 21%. The molecule further displayed a % Collagen Binding, Dried Human in experiment [2] of 24%.

B3: SEQ ID NO: 105 (peptide)
peptide: YHACYQ[NMeA]GCWIW
modifications: disulfide 4-9 (inferred)
In experiment [1], B3 yielded a % Collagen Binding, Dried Rat of 23%. This molecule gave a % Collagen Binding, Dried Human in experiment [2] of 9%.

B4: SEQ ID NO: 104 (peptide)
peptide: YHACYQA[Sar]CWIW
modifications: disulfide 4-9 (inferred)
B4: the % Collagen Binding, Dried Rat in experiment [1] was 19%. The % Collagen Binding, Dried Human in experiment [2] is 12%.

B5: SEQ ID NO: 156 (peptide)
peptide: YHAC[dY]QAGCWIW
modifications: disulfide 4-9 (inferred)
Molecule B5 had a % Collagen Binding, Dried Rat in experiment [1] of 48%. For the same molecule, in experiment [2], the % Collagen Binding, Dried Human amounted to 38%.

B6: SEQ ID NO: 12 (peptide)
peptide: PMICHAPYVGKCNFL
modifications: disulfide 4-12 (inferred)
Regarding B6, in experiment [2], the Dried Human Collagen Binding came out at 7%.

B7: SEQ ID NO: 142 (peptide)
peptide: GQWTCSADEYTWHCNYE
modifications: disulfide 5-14 (inferred)
B7 gave a % Collagen Binding, Dried Rat in experiment [1] of 6%.

B8: SEQ ID NO: 158 (peptide)
peptide: YHACYQ[dA]GCWIW
modifications: disulfide 4-9 (inferred)
The molecule B8 yielded a % Collagen Binding, Dried Rat in experiment [1] of 66%. In addition, the % Collagen Binding, Dried Human in experiment [2] was 56%.

B9: SEQ ID NO: 166 (peptide)
peptide: GQW[dT]CSGDEYTWHCNYE
modifications: disulfide 5-14 (inferred)
B9 displayed a % Collagen Binding, Dried Rat in experiment [1] of 3%. The % Collagen Binding, Dried Human in experiment [2] stood at 2%.

B10: SEQ ID NO: 164 (peptide)
peptide: G[dQ]WTCSGDEYTWHCNYE
modifications: disulfide 5-14 (inferred)
In experiment [1], B10 showed a % Collagen Binding, Dried Rat of 31%. Moreover, the % Collagen Binding, Dried Human in experiment [2] was determined as 46%.

B11: SEQ ID NO: 107 (peptide)
peptide: YHACYQAGCYIW
modifications: disulfide 4-9 (inferred)
In experiment [1], B11 returned a % Collagen Binding, Dried Rat of 6%.

B12: SEQ ID NO: 157 (peptide)
peptide: YHACY[dQ]AGCWIW
modifications: disulfide 4-9 (inferred)
Turning to B12, the % Collagen Binding, Dried Rat in experiment [1] was 35%. The molecule also displayed a % Collagen Binding, Dried Human in experiment [2] of 37%.

B13: SEQ ID NO: 160 (peptide)
peptide: YHACYQAGC[dW]IW
modifications: disulfide 4-9 (inferred)
Take B13: in experiment [1], the % Collagen Binding, Dried Rat turned out to be 12%. Moreover, the % Collagen Binding, Dried Human in experiment [2] is 20%.

B14: SEQ ID NO: 153 (peptide)
peptide: Y[dH]ACYQAGCWIW
modifications: disulfide 4-9 (inferred)
As for B14, in experiment [1], the % Collagen Binding, Dried Rat came to 0%. In experiment [2], this molecule returned a % Collagen Binding, Dried Human of 0%.

B15: SEQ ID NO: 165 (peptide)
peptide: GQ[dW]TCSGDEYTWHCNYE
modifications: disulfide 5-14 (inferred)
For the molecule B15, in experiment [1], the % Collagen Binding, Dried Rat turned out to be 4%. This molecule gave a % Collagen Binding, Dried Human in experiment [2] of 2%.

B16: SEQ ID NO: 161 (peptide)
peptide: YHACYQAGCW[dI]W
modifications: disulfide 4-9 (inferred)
Regarding B16, the % Collagen Binding, Dried Rat in experiment [1] came to 10%. Further, in experiment [2], the % Collagen Binding, Dried Human is 8%.

B17: SEQ ID NO: 137 (peptide)
peptide: YHACYQAGCWAW
modifications: disulfide 4-9 (inferred)
For the molecule B17, in experiment [1], the % Collagen Binding, Dried Rat turned out to be 7%.
